The source of these data is US5739281.

For this test, the target named is natural affinity purified heavy chain class I K^d molecules. As to the kind of experiment: binding to natural class I heavy chain molecules, format not given (follows the binding inhibition experiment).

On to Recombinant murine β2-microglobulin, for which the affinity, times lower than that of the (human) β2-microglobulin came to 5 times lower.
